Several values for one entry are separate records, joined by “and”; a condition that tells them apart may be missing. Equal entries are not always repeated.
B1: His-tagged Burkholderia cenocepacia OrbS (iron starvation ECF σ factor) (natural protein, UniProt B4E986 1-222, looked up)
chain: MAMAEVLDRPAAAAANPFLGSYPDLPPRAAPRARRASEPRAQGALLDVLISHRAMLVNVARGFVGCASRAEDVVHDVFVKLVEFPNQDAVRQPVAYVTRMVRNASIDACRRQNLENVYHTEEDDGFDVPSPEPTPEAALMTRDTLRRVWAALDDLPARSRAAFEMVRLREETLQTAARALNVSQTLVHFMVRDAERHCAECLDACHRGVACPVFLGGRARRR
notes: also called σ^OrbS; BCAL1688

Legend:
[1] = target: His-tagged OrbS-CtetraA (OrbS with all four C-terminal cysteine residues replaced by alanine); assay: BLI
[2] = target: T1, E. coli core RNA polymerase (core RNAP, α2ββ'ω) (E. coli, UniProt P0A7Z4 1-329; P0A8V2 1-1342; P0A8T7 1-1407; P0A800 1-91); assay: BLI; details: both partners purified
T1 construct: RNA polymerase subunit alpha, E. coli; RNA polymerase subunit beta, E. coli; RNA polymerase subunit beta', E. coli; RNA polymerase subunit omega, E. coli; Commercial core enzyme (NEB); also called E. coli RNAP core enzyme; core E. coli RNAP; source: bought: NEB; copies: 2 + + +

| Molecule | Kd [1] | kon [1] | Kd [2] [nM] | koff [2] [s⁻¹] | kon [2] [M⁻¹ s⁻¹] |
| --- | --- | --- | --- | --- | --- |
| E. coli core RNA polymerase (core RNAP, α2ββ'ω) (from UniProt P0A7Z4 1-329; P0A8V2 1-1342; P0A8T7 1-1407; P0A800 1-91) (complex) | 20 nM and 160 nM | 15000 M⁻¹ s⁻¹ and 9100 M⁻¹ s⁻¹ |  |  |  |
| B1 |  |  | 83 | 0.00045 | 5400 |

— paper PMC9023288, “The Burkholderia cenocepacia iron starvation σ factor, OrbS, possesses an on-board iron sensor” (Nucleic Acids Research, 2022)
